Source: the RNAGym collection of RNA variant scans (doi:10.7554/elife.90254)

B1: OR4K15 (parent)
chain: GUUAACGGUCAUAGGCCAUGGAAACUAGGAGCACCAUUUCGCUGCCAGUGAAGAAAUGAACAAAGAAAAUCUGGGCCAGGCAGGCAUCAAAAGAAAUAGUCUUGCGCUCAACCAGAAAGUCUGUAAUCAUUUUAAGGGUA

Variants of: B1
Assay: self-cleavage, relative activity (ratio to wild type); higher = more cleavage; in vitro, sequencing; the parent is a self-cleaving ribozyme

**Q.** With GUUAACGGUCAUAGGCCAUGGAAACUAGGAGCACCUUUUCGCUGCCAGUGAAGAAAUGAACAAAGAAAAUCUGGGCCAGGCAGGCAUCAAAGGAAAUAGUCUUGCGCUCAACCAGAAAGUCUGUAAUCAUUUUAAGGGUA [A36U A92G] as the variant, how does the self-cleavage read?
**A.** Its self-cleavage is 1.61.

**Q.** Which self-cleavage does the source give for GUUAACGGUCAUAGGCCAUGGAAACUAGGAGCACCAUUUCGCUGCCAGUGAAGAAAUGGACAAAGAAAAUCUGGGCCAGGCAGGCAUCAAGAGAAAUAGUCUUGCGCUCAACCAGAAAGUCUGUAAUCAUUUUAAGGGUA [A59G A91G] here?
**A.** The self-cleavage was 0.8.

**Q.** With GUUAACGGACAUAGGCCAUGGAAACUAGGAGCACCAUUUCGCUGCCAGUGAAGAAAUGAACAAAGAAAAUCUGGGCCAGGCAGGCUUCAAAAGAAAUAGUCUUGCGCUCAACCAGAAAGUCUGUAAUCAUUUUAAGGGUA [U9A A86U] as the variant, how does the self-cleavage read?
**A.** The self-cleavage was 1.37.

**Q.** With GUUAACGGUCAUAGGCCUUGGAAACUCGGAGCACCAUUUCGCUGCCAGUGAAGAAAUGAACAAAGAAAAUCUGGGCCAGGCAGGCAUCAAAAGAAAUAGUCUUGCGCUCAACCAGAAAGUCUGUAAUCAUUUUAAGGGUA [A18U A27C] as the variant, how does the self-cleavage read?
**A.** Its self-cleavage is 1.5.

**Q.** For GUUAACGGUCAUAGGCCAUGGAAACUAGGAGCACUAUUUCGCUGCCAGUGAAGAAAUGAACAAAGAAAAUCUGGGCCAGGCAGGCAUCAAAAGAAAUAGUCUUGCGCUCAACCAGAAAGUCUGUAAUCAUUUUAAUGGUA [C35U G136U], which self-cleavage is on record?
**A.** Its self-cleavage is 1.19.

**Q.** Which self-cleavage does the source give for GUUAACGGUCAUAGGCCUUGGAAACUAGGAGCACCAUUUCGCUGCCAGUGAAGAAAUGAACAAAGAAAAUCUGGGCCAGGCAGGCAUCAAAAGAGAUAGUCUUGCGCUCAACCAGAAAGUCUGUAAUCAUUUUAAGGGUA [A18U A95G] here?
**A.** Its self-cleavage is 1.96.

**Q.** With GUUAACGGUCAUAGGCCAUGGAAACUAGGAGCACCAUUUCGCUGCCGGUGAAGAAAUGAACAGAGAAAAUCUGGGCCAGGCAGGCAUCAAAAGAAAUAGUCUUGCGCUCAACCAGAAAGUCUGUAAUCAUUUUAAGGGUA [A47G A63G] as the variant, how does the self-cleavage read?
**A.** Its self-cleavage is 0.44.

**Q.** Which self-cleavage does the source give for GCUAACGGUCAUAGGCCAUGGAAACUAGGAGCACCAUUUCGCUGCCAGUGAAGAAAUGAACAAUGAAAAUCUGGGCCAGGCAGGCAUCAAAAGAAAUAGUCUUGCGCUCAACCAGAAAGUCUGUAAUCAUUUUAAGGGUA [U2C A64U] here?
**A.** Its self-cleavage is 1.3.

**Q.** For GUUAACGGUCAUUGGCCAUGGAAGCUAGGAGCACCAUUUCGCUGCCAGUGAAGAAAUGAACAAAGAAAAUCUGGGCCAGGCAGGCAUCAAAAGAAAUAGUCUUGCGCUCAACCAGAAAGUCUGUAAUCAUUUUAAGGGUA [A13U A24G], which self-cleavage is on record?
**A.** Its self-cleavage is 1.06.

**Q.** Which self-cleavage does the source give for GUUAACGGUCAUAGGCCAUGGAAACUAGGAGCACCAUUUCGCUGCCAGUGAGGAAAUGAACAAAGUAAAUCUGGGCCAGGCAGGCAUCAAAAGAAAUAGUCUUGCGCUCAACCAGAAAGUCUGUAAUCAUUUUAAGGGUA [A52G A66U] here?
**A.** The self-cleavage was 1.54.

**Q.** With GUUAACGGUCAUAGGCCAAGGAAACUAGGAGCACCAUUUCGCUGCCAGUGAAGAAAUGAACAAAGAAAAUCUGGGCCCGGCAGGCAUCAAAAGAAAUAGUCUUGCGCUCAACCAGAAAGUCUGUAAUCAUUUUAAGGGUA [U19A A78C] as the variant, how does the self-cleavage read?
**A.** Its self-cleavage is 0.29.

**Q.** For GUUAACGGUCAUGGGCCAUGGAAACUAGGAGCACCAUUUCGCUGCCAGUGAAGAAAUGAACAAAGAAAAUCUGGGCCAGGCAGGCAUCAAAAGAAAUAGUCUUGCGCUCAACCAGAAAGUCUGUAAUCAUUUUACGGGUA [A13G A135C], which self-cleavage is on record?
**A.** Its self-cleavage is 0.49.

**Q.** For GUUAACGGUCAUAGGCCAUGGAAACUAGGAGCACCAAUUCGCUGCCAGUGAAGAAAUGAUCAAAGAAAAUCUGGGCCAGGCAGGCAUCAAAAGAAAUAGUCUUGCGCUCAACCAGAAAGUCUGUAAUCAUUUUAAGGGUA [U37A A60U], which self-cleavage is on record?
**A.** The self-cleavage was 1.8.

**Q.** With GUUAACGGUCAUAGGCCAUGGAAACUAGGAGCACCAUUUCGCUGCCAGUGAAGAAAUGAACAGAGAAAAUCUGGGCCAGGCAGGCAUCAAAAGAAAUAGUCUUGCGCUCAACCAGAAAGUCUGUAAUCAUAUUAAGGGUA [A63G U131A] as the variant, how does the self-cleavage read?
**A.** The self-cleavage was 0.45.

**Q.** With GUUAACGGUCAUAGGCCAUGGAAACUAGGAGCACCAUUUCGCUGCCAGUGAUGAAAUGAACAAAGAAAAUCUGGGCCAGGCAGGCAACAAAAGAAAUAGUCUUGCGCUCAACCAGAAAGUCUGUAAUCAUUUUAAGGGUA [A52U U87A] as the variant, how does the self-cleavage read?
**A.** Its self-cleavage is 1.78.

**Q.** With GUUAACGGUCAUAGGCCACGGAAACUAGGAGCACCAUUUCGCUGCCAGUGAAGAAAUGAACAGAGAAAAUCUGGGCCAGGCAGGCAUCAAAAGAAAUAGUCUUGCGCUCAACCAGAAAGUCUGUAAUCAUUUUAAGGGUA [U19C A63G] as the variant, how does the self-cleavage read?
**A.** The self-cleavage was 0.89.

**Q.** With GUUAACGGUCAUAGGCCAUGGAAACUGGGAGCACCAUUUCGCUGCCAGUGAAGAAAUGAACAAAGAAAAUCUGGGCCAGGCAGGCAUCAAAAGAAAUAGUCUUGCGCCCAACCAGAAAGUCUGUAAUCAUUUUAAGGGUA [A27G U108C] as the variant, how does the self-cleavage read?
**A.** Its self-cleavage is 0.02.

**Q.** With GUUAACGGUCAUAGGCCAUGGAAACUAGGAGCACCAUUUCGCUGCCAGUGAAGAAGUGAACAAAGAAAAUCUGGGCCAGGCAGGCAUCACAAGAAAUAGUCUUGCGCUCAACCAGAAAGUCUGUAAUCAUUUUAAGGGUA [A56G A90C] as the variant, how does the self-cleavage read?
**A.** The self-cleavage was 0.21.

**Q.** For GUUAACGGUCAUAGGCCAUGGGAACUAGGAGCACCAUUUCGCUGCCAGUGAAGAAAUGAACAAAGAAAAUCUGGGCCAGGCAGGCAUCAAAAGAAAUAGUCUUGCGCUCAACUAGAAAGUCUGUAAUCAUUUUAAGGGUA [A22G C113U], which self-cleavage is on record?
**A.** Its self-cleavage is 0.14.

**Q.** With GUUAACGGUCAUAGGCCAUGGAAACUAGGAGCACCAUUUCGCUGCCAGUGAAGAAAUGAACAAAGAAAAUCUGGGCCAUGCAGGCAUCAAAAGAAAUAGCCUUGCGCUCAACCAGAAAGUCUGUAAUCAUUUUAAGGGUA [G79U U100C] as the variant, how does the self-cleavage read?
**A.** The self-cleavage was 0.03.
